Reference: patent US20160051654A1 (IMMATICS BIOTECHNOLOGIES, published 2016)
Ends that are not written are not given here.

How the values were obtained:
[1] = biological target: T1, HLA-A*0201 (recombinant HLA-A*0201 heavy chain with human beta-2 microglobulin) (human); assay: EpI ELISA: refolding of recombinant HLA-A*0201 with b2m and graded peptide
[2] = biological target: T1, HLA-A*0201 (recombinant HLA-A*0201 …); assay: ELISA-based refolding assay: recombinant HLA-A*0201, b2m and graded peptide

binding result [1] | Binder | further results
binds | KLMDLDVEQL (also called IMA-PCN-001) [PCN-001] | –
binds | ALSNLEVTL (also: acetate salt, also called IMA-C20-001) [C20-001] | –

More lines, now with the values behind:

Binder | binding result [1] | further results
ALFVRLLALA (also called IMA-TGFBI-001) [TGFBI-001] | – | fold lower KD compared with the majority of peptides [1]: 100 fold
ILAPVILYI (also called IMA-NOX-001) [NOX-001] | binds | –
KLGDFGLATVV [DCA-001] | – | binding result [2]: binds
KIFDEILVNA (also called IMA-TOP-001) [TOP-001] | binds | –
KLTDIQIEL [JAK-001] | – | binding result [2]: binds
